The text below walks through data of patent EP4803150A2 (Lyvgen Biopharma Holdings Limited, dated 2026).

For orientation: EC50 means the concentration giving half of the maximal effect.

One test concerns the target T1, CD137 (human, UniProt Q07011 24-186).
T1 construct: Whole on GS-H2-huCD137 reporter cells in the reporter assays; also called 4-1BB
As to the kind of experiment: FCM or ELISA, graded. On the technique in general: An ELISA detects its analyte on a solid surface through an enzyme-linked reagent.

For the next test, the target named is T2, CD3 (human).
T2 chain: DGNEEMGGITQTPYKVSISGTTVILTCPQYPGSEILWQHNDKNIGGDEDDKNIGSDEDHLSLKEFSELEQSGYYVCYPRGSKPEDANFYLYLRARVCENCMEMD
As to the kind of experiment: CD3 binding as in Example 2 (ELISA or FCM).

B1: Ly2600 (multi-specific antibody)
chain 1: QVQLVQSGAEVKKPGASVKVSCKASGYTFTSYVMHWVRQKPGQGLEWIGYINPYNEGTESTDKFKGRATMTSDKSTSTVYMELSSLRSEDTAVYYCASIYYGYEGTYFGVWGQGTLVTVSSASTKGPSVFPLAPSSKSTSGGTAALGCLVKDYFPEPVTVSWNSGALTSGVHTFPAVLQSSGLYSLSSVVTVPSSSLGTQTYICNVNHKPSNTKVDKKVEPKSCGGGGSGGGGSGGGGSGGGGSEVQLVESGGGLVQPGGSLRLSCAASGFTFSTYAMNWVRQAPGKGLEWVGRIRSKYNNYATYYADSVKGRFTISRDDSKNSLYLQMNSLKTEDTAVYYCVRHGNFGNSYVSWFAYWGQGTLVTVSSGGGGSDKTHTCPPCPAPELLGPSVFLFPPKPKDTLMISRTPEVTCVVVDVSHEDPEVKFNWYVDGVEVHNAKTKPREEQYNSTYRVVSVLTVLHQDWLNGKEYKCKVSNKALGAPIEKTISKAKGQPREPQVYTLPPSREEMTKNQVSLWCLVKGFYPSDIAVEWESNGQPENNYKTTPPVLDSDGSFFLYSKLTVDKSRWQQGNVFSCSVMHEALHNHYTQKSLSLSPGGGGGSGGGGSGGGGSGGGGSQVQLVQSGAEVKKPGASVKVSCKASGYTFAGFEMHWVRQAPGQGLEWMGAIDPKTGGTDYNQKFKDRVTMTRDTSISTAYMELSRLRSDDTAVYYCARDLGYFDVWGQGTLVTVSS
chain 2: QVQLVQSGAEVKKPGASVKVSCKASGYTFTSYVMHWVRQKPGQGLEWIGYINPYNEGTESTDKFKGRATMTSDKSTSTVYMELSSLRSEDTAVYYCASIYYGYEGTYFGVWGQGTLVTVSSASTKGPSVFPLAPSSKSTSGGTAALGCLVKDYFPEPVTVSWNSGALTSGVHTFPAVLQSSGLYSLSSVVTVPSSSLGTQTYICNVNHKPSNTKVDKKVEPKSCGGGGSGGGGSGGGGSGGGGSQAVVTQEPSLTVSPGGTVTLTCRSSTGAVTTSNYANWVQQKPGQAPRGLIGGTNKRAPWTPARFSGSLLGGKAALTITGAQAEDEADYYCALWYSNLWVFGGGTKLTVLGGGGSDKTHTCPPCPAPELLGPSVFLFPPKPKDTLMISRTPEVTCVVVDVSHEDPEVKFNWYVDGVEVHNAKTKPREEQYNSTYRVVSVLTVLHQDWLNGKEYKCKVSNKALGAPIEKTISKAKGQPREPQVYTLPPSREEMTKNQVSLSCAVKGFYPSDIAVEWESNGQPENNYKTTPPVLDSDGSFFLVSKLTVDKSRWQQGNVFSCSVMHEALHNHYTQKSLSLSPGGGGGSGGGGSGGGGSGGGGSDIQMTQSPSSLSASVGDRVTITCRASQDIRSNLNWYQQKPGGAVKLLIYYTSRLHSGVPSRFSGSGSGTDYTLTISSLQPEDFATYFCQQSEKLPRTFGGGTKVEIR
chain 3: EIVLTQSPATLSLSPGERATLSCRASSSVSYMHWYQQKPGQAPRPWIYATSNLASGIPARFSGSRSGTDYTLTISSLEPEDFAVYYCQQWSSNTLTFGGGTKVEIKRTVAAPSVFIFPPSDEQLKSGTASVVCLLNNFYPREAKVQWKVDNALQSGNSQESVTEQDSKDSTYSLSSTLTLSKADYEKHKVYACEVTHQGLSSPVTKSFNRGEC
notes: B7H3/CD3/CD137
For the molecule B1, the binding result in the test with CD137 is “binds”.

B2: Ly2278 (bispecific antibody)
chain 1: QVQLQQSGAELVRPGSSVKISCKASGYAFSSYWMNWVKQRPGQGLEWIGQIWPGDGDTNYNGKFKGKATLTADESSSTAYMQLSSLASEDSAVYFCARRETTTVGRYYYAMDYWGQGTTVTVSSASTKGPSVFPLAPSSKSTSGGTAALGCLVKDYFPEPVTVSWNSGALTSGVHTFPAVLQSSGLYSLSSVVTVPSSSLGTQTYICNVNHKPSNTKVDKKVEPKSCGGGGSGGGGSGGGGSGGGGSEVQLVESGGGLVQPGGSLRLSCAASGFTFSTYAMNWVRQAPGKGLEWVGRIRSKYNNYATYYADSVKGRFTISRDDSKNSLYLQMNSLKTEDTAVYYCVRHGNFGNSYVSWFAYWGQGTLVTVSSGGGGSDKTHTCPPCPAPEAAGPSVFLFPPKPKDTLMISRTPEVTCVVVDVSHEDPEVKFNWYVDGVEVHNAKTKPREEQYNSTYRVVSVLTVLHQDWLNGKEYKCKVSNKALPAPIEKTISKAKGQPREPQVYTLPPSREEMTKNQVSLWCLVKGFYPSDIAVEWESNGQPENNYKTTPPVLDSDGSFFLYSKLTVDKSRWQQGNVFSCSVMHEALHNHYTQKSLSLSPG
chain 2: QVQLQQSGAELVRPGSSVKISCKASGYAFSSYWMNWVKQRPGQGLEWIGQIWPGDGDTNYNGKFKGKATLTADESSSTAYMQLSSLASEDSAVYFCARRETTTVGRYYYAMDYWGQGTTVTVSSASTKGPSVFPLAPSSKSTSGGTAALGCLVKDYFPEPVTVSWNSGALTSGVHTFPAVLQSSGLYSLSSVVTVPSSSLGTQTYICNVNHKPSNTKVDKKVEPKSCGGGGSGGGGSGGGGSGGGGSQAVVTQEPSLTVSPGGTVTLTCRSSTGAVTTSNYANWVQQKPGQAPRGLIGGTNKRAPWTPARFSGSLLGGKAALTITGAQAEDEADYYCALWYSNLWVFGGGTKLTVLGGGGSDKTHTCPPCPAPEAAGPSVFLFPPKPKDTLMISRTPEVTCVVVDVSHEDPEVKFNWYVDGVEVHNAKTKPREEQYNSTYRVVSVLTVLHQDWLNGKEYKCKVSNKALPAPIEKTISKAKGQPREPQVYTLPPSREEMTKNQVSLSCAVKGFYPSDIAVEWESNGQPENNYKTTPPVLDSDGSFFLVSKLTVDKSRWQQGNVFSCSVMHEALHNRFTQKSLSLSPG
chain 3: not shown
notes: CD19/CD3
Regarding B2, the EC50 with CD3 came out at 1.46 mg/L.

B3: Ly1966 (multi-specific antibody)
chain 1: QVQLQQSGAELVRPGSSVKISCKASGYAFSSYWMNWVKQRPGQGLEWIGQIWPGDGDTNYNGKFKGKATLTADESSSTAYMQLSSLASEDSAVYFCARRETTTVGRYYYAMDYWGQGTTVTVSSASTKGPSVFPLAPSSKSTSGGTAALGCLVKDYFPEPVTVSWNSGALTSGVHTFPAVLQSSGLYSLSSVVTVPSSSLGTQTYICNVNHKPSNTKVDKKVEPKSCGGGGSGGGGSGGGGSGGGGSEVQLVESGGGLVQPGGSLRLSCAASGFTFSTYAMNWVRQAPGKGLEWVGRIRSKYNNYATYYADSVKGRFTISRDDSKNSLYLQMNSLKTEDTAVYYCVRHGNFGNSYVSWFAYWGQGTLVTVSSGGGGSDKTHTCPPCPAPEAAGPSVFLFPPKPKDTLMISRTPEVTCVVVDVSHEDPEVKFNWYVDGVEVHNAKTKPREEQYNSTYRVVSVLTVLHQDWLNGKEYKCKVSNKALPAPIEKTISKAKGQPREPQVYTLPPSREEMTKNQVSLWCLVKGFYPSDIAVEWESNGQPENNYKTTPPVLDSDGSFFLYSKLTVDKSRWQQGNVFSCSVMHEALHNHYTQKSLSLSPGGGGGSGGGGSGGGGSGGGGSQVQLVQSGAEVKKPGASVKVSCKASGYTFAGFEMHWVRQAPGQGLEWMGAIDPKTGGTDYNQKFKDRVTMTRDTSISTAYMELSRLRSDDTAVYYCARDLGYFDVWGQGTLVTVSS
chain 2: QVQLQQSGAELVRPGSSVKISCKASGYAFSSYWMNWVKQRPGQGLEWIGQIWPGDGDTNYNGKFKGKATLTADESSSTAYMQLSSLASEDSAVYFCARRETTTVGRYYYAMDYWGQGTTVTVSSASTKGPSVFPLAPSSKSTSGGTAALGCLVKDYFPEPVTVSWNSGALTSGVHTFPAVLQSSGLYSLSSVVTVPSSSLGTQTYICNVNHKPSNTKVDKKVEPKSCGGGGSGGGGSGGGGSGGGGSQAVVTQEPSLTVSPGGTVTLTCRSSTGAVTTSNYANWVQQKPGQAPRGLIGGTNKRAPWTPARFSGSLLGGKAALTITGAQAEDEADYYCALWYSNLWVFGGGTKLTVLGGGGSDKTHTCPPCPAPEAAGPSVFLFPPKPKDTLMISRTPEVTCVVVDVSHEDPEVKFNWYVDGVEVHNAKTKPREEQYNSTYRVVSVLTVLHQDWLNGKEYKCKVSNKALPAPIEKTISKAKGQPREPQVYTLPPSREEMTKNQVSLSCAVKGFYPSDIAVEWESNGQPENNYKTTPPVLDSDGSFFLVSKLTVDKSRWQQGNVFSCSVMHEALHNRFTQKSLSLSPGGGGGSGGGGSGGGGSGGGGSDIQMTQSPSSLSASVGDRVTITCRASQDIRSNLNWYQQKPGGAVKLLIYYTSRLHSGVPSRFSGSGSGTDYTLTISSLQPEDFATYFCQQSEKLPRTFGGGTKVEIR
chain 3: not shown
notes: CD19/CD3/CD137
B3 showed an EC50 with CD3 of 0.348 mg/L.

B4: Ly1967 (multi-specific antibody)
chain 1: QVQLQQSGAELVRPGSSVKISCKASGYAFSSYWMNWVKQRPGQGLEWIGQIWPGDGDTNYNGKFKGKATLTADESSSTAYMQLSSLASEDSAVYFCARRETTTVGRYYYAMDYWGQGTTVTVSSASTKGPSVFPLAPSSKSTSGGTAALGCLVKDYFPEPVTVSWNSGALTSGVHTFPAVLQSSGLYSLSSVVTVPSSSLGTQTYICNVNHKPSNTKVDKKVEPKSCGGGGSGGGGSGGGGSGGGGSEVQLVESGGGLVQPGGSLRLSCAASGFTFSTYAMNWVRQAPGKGLEWVGRIRSKYNNYATYYADSVKGRFTISRDDSKNSLYLQMNSLKTEDTAVYYCVRHGNFGNSYVSWFAYWGQGTLVTVSSGGGGSDKTHTCPPCPAPEAAGPSVFLFPPKPKDTLMISRTPEVTCVVVDVSHEDPEVKFNWYVDGVEVHNAKTKPREEQYNSTYRVVSVLTVLHQDWLNGKEYKCKVSNKALPAPIEKTISKAKGQPREPQVYTLPPSREEMTKNQVSLWCLVKGFYPSDIAVEWESNGQPENNYKTTPPVLDSDGSFFLYSKLTVDKSRWQQGNVFSCSVMHEALHNHYTQKSLSLSPGGGGGSGGGGSGGGGSGGGGSQVQLVQSGAEVKKPGASVKVSCKASGYTFAGFEMHWVRQAPGQGLEWMGAIDPKTGGTDYNQKFKDRVTMTRDTSISTAYMELSRLRSDDTAVYYCARDLGYFDVWGQGTLVTVSS
chain 2: QVQLQQSGAELVRPGSSVKISCKASGYAFSSYWMNWVKQRPGQGLEWIGQIWPGDGDTNYNGKFKGKATLTADESSSTAYMQLSSLASEDSAVYFCARRETTTVGRYYYAMDYWGQGTTVTVSSASTKGPSVFPLAPSSKSTSGGTAALGCLVKDYFPEPVTVSWNSGALTSGVHTFPAVLQSSGLYSLSSVVTVPSSSLGTQTYICNVNHKPSNTKVDKKVEPKSCGGGGSGGGGSGGGGSGGGGSQAVVTQEPSLTVSPGGTVTLTCRSSTGAVTTSNYANWVQQKPGQAPRGLIGGTNKRAPWTPARFSGSLLGGKAALTITGAQAEDEADYYCALWYSNLWVFGGGTKLTVLGGGGSDKTHTCPPCPAPEAAGPSVFLFPPKPKDTLMISRTPEVTCVVVDVSHEDPEVKFNWYVDGVEVHNAKTKPREEQYNSTYRVVSVLTVLHQDWLNGKEYKCKVSNKALPAPIEKTISKAKGQPREPQVYTLPPSREEMTKNQVSLSCAVKGFYPSDIAVEWESNGQPENNYKTTPPVLDSDGSFFLVSKLTVDKSRWQQGNVFSCSVMHEALHNHYTQKSLSLSPGGGGGSGGGGSGGGGSGGGGSDIQMTQSPSSLSASVGDRVTITCRASQDIRSNLNWYQQKPGGAVKLLIYYTSRLHSGVPSRFSGSGSGTDYTLTISSLQPEDFATYFCQQSEKLPRTFGGGTKVEIR
chain 3: not shown
notes: CD19/CD3/CD137
In the test with CD3, B4 returned a concentration giving a half-maximal response (EC50) of 1.56 mg/L.
